We go through 1 molecule from patent publication US20230129258A1 (Bicycle, published 2023).

The target of experiment [1] is T1, human Nectin-4 extracellular domain (human, UniProt Q96NY8 32-349, biotinylated where captured on the streptavidin chip).
T1 construct: extracellular domain; also called Nectin-4 (human); Biotinylated - Nectin-4 extracellular domain
T1 sequence (looked up): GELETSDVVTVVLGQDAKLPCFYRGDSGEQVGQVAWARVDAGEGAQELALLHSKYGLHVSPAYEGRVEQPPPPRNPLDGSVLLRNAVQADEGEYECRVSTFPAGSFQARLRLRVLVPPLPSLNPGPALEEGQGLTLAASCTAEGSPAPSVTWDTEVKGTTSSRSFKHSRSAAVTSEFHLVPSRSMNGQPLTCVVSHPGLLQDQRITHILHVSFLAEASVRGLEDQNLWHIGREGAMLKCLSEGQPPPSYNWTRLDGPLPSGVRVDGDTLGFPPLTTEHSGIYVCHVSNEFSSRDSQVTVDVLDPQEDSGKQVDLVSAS
Briefly: SPR, direct binding of BCY11863 to immobilized human Nectin-4, 1:1 fit. On the technique in general: In SPR one partner is held on a chip, and binding of the other changes the refractive index at the surface.

In experiment [2] the target is T2, cyno (NHP) CD137 extracellular domain (cyno (NHP), UniProt A9YYE7 24-186).
T2 construct: extracellular domain
T2 sequence (A9YYE7 entry or part of it): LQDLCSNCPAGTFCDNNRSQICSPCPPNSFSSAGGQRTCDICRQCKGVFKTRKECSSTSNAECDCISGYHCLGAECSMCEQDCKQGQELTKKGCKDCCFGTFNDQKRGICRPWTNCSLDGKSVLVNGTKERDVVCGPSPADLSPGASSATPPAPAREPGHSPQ
The experiment in a line: SPR dual binding, BCY11863 captured on biotinylated human Nectin-4, soluble CD137 ECD passed over, n = 3.

Experiment [3] has as its target T1, human Nectin-4 extracellular domain. Briefly: SPR sandwich assay, BCY11863 captured on biotinylated human CD137, soluble Nectin-4 ECD passed over, n = 4.
The target in experiment [4] is CD137 on Jurkat reporter cells (Promega kit CS196005) (UniProt Q07011 24-255, limits assumed). The experiment in a line: cell-based or functional assay.
CD137 on Jurkat reporter cells (Promega kit CS196005), sequence (Q07011 24-255 limits assumed): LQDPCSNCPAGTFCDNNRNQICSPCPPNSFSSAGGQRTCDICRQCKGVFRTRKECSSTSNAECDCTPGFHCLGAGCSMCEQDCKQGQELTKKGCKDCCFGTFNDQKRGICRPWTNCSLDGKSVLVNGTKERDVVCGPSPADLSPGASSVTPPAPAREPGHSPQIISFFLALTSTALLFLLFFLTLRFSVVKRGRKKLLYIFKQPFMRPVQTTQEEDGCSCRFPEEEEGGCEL
Experiment [5] concerns the target T3, human CD137 extracellular domain (human, UniProt Q07011 24-186, biotinylated where captured on the streptavidin chip).
T3 construct: extracellular domain; Section 17 says only 'Recombinant human CD137 (R&D systems)'; also called CD137 (human); Recombinant human CD137 (R&D systems)
The experiment in a line: dual binding SPR: BCY11863 captured on immobilized human Nectin-4, soluble human CD137 as analyte, 1:1 fit [ctd) D].

Experiment [6] concerns the target T4, Nectin-like-1 (3678-S4-050, R&D Systems) (UniProt Q8N126 25-330, biotinylated).
T4 sequence (looked up): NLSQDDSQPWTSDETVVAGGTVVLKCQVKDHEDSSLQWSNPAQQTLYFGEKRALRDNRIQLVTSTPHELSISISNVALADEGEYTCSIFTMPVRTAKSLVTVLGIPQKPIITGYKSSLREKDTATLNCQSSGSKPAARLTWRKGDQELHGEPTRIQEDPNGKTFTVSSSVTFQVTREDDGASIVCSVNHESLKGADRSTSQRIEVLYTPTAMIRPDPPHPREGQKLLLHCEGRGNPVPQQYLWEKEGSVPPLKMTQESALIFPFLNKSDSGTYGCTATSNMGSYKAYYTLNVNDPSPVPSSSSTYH
Briefly: SPR, biotinylated target on streptavidin surface.

Experiment [7] addresses T5, Nectin-like-5 (2530-CD-050, R&D Systems) (UniProt P15151 27-343, biotinylated).
T5 sequence (looked up): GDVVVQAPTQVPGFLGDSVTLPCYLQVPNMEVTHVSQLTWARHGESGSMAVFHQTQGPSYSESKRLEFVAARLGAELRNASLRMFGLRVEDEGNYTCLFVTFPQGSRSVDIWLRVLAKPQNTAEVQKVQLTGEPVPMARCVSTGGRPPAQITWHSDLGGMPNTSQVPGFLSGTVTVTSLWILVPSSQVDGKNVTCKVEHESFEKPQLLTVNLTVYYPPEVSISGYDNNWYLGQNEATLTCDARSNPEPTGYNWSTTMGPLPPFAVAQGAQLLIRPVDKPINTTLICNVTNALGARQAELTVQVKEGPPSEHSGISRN
The experiment in a line: SPR, biotinylated target on streptavidin surface.

In experiment [8] the target is T6, cyno (NHP) Nectin-4 extracellular domain (cyno (NHP), UniProt A0A2K5WES1 32-349, biotinylated where captured on the streptavidin chip).
T6 construct: extracellular domain
T6 sequence: T1 sequence (looked up) with V39A, I230V
The experiment in a line: SPR direct binding, biotinylated Nectin-4 ECD on streptavidin chip, 25° C., n = 9.

Experiment [9] addresses T7, mouse Nectin-4 extracellular domain (mouse, UniProt Q8R007 31-347, biotinylated where captured on the streptavidin chip).
T7 construct: extracellular domain
T7 sequence (looked up): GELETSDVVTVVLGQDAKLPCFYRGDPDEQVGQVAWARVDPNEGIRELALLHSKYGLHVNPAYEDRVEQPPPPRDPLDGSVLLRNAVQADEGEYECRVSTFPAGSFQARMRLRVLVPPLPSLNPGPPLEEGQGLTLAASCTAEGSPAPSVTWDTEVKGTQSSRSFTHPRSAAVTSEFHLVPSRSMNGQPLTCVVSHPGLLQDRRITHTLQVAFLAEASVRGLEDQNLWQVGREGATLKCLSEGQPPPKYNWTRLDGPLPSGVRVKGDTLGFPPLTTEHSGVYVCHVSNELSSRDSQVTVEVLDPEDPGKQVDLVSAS
The description is as above.

Residue numbers refer to the chain shown, from its start. Starred links: 1 amine or outer side, 2 acyl side, 3 side chain; linkers in the order of their positions; H or OH if unused. Positions of bridges follow the written chain, without caps; N, C: chain ends. Non-standard residues stand in square brackets, D forms with d. Chains are numbered I, II in the order given. No end group written: not given here. dLys(PYA) = D-lysine Nε-acylated with 4-pentynoic acid, clicked (triazole) to the linker azide, O=C(CCc1cn([*:3])nn1)NCCCC[C@@H](N[*:1])C(=O)[*:2]; TATA = O=C(CC[*:1])N1CN(C(=O)CC[*:2])CN(C(=O)CC[*:3])C1; 1Nal = N[C@@H](Cc1cccc2ccccc12)C(=O)O; Hyp = O=C(O)[C@@H]1C[C@@H](O)CN1; hArg = N=C(N)NCCCC[C@H](N)C(=O)O; tBuAla = CC(C)(C)C[C@H](N)C(=O)O; Nle = CCCC[C@H](N)C(=O)O

T3 sequence (Q07011 24-186): as the sequence (A9YYE7 entry or part of it) above, with L4P, S19N, K50R, I66T, S67P, Y69F, E75G, A149V counted along it

B1: heterotandem bicyclic peptide complex BCY11863 (peptide)
peptide 1: CP[1Nal][dD]CM[hArg]DWSTP[Hyp]WC
peptide 2: Ac-C[tBuAla]PE[dLys(PYA)]PYCFADPY[Nle]CA
modifications: linker I:1-I:5-I:15, II:1-II:8-II:15 via TATA; not fully specified (bridges); also: 1:2 complex: BCY8116 + 2x BCY8928
notes: also called Nectin-4/CD137 heterotandem
Regarding B1, in [1], the koff – broadly, the first-order rate constant of dissociation – was 0.00229 s⁻¹ and the kon – broadly, a measure of how fast the partners come together – was 561000 M⁻¹ s⁻¹. Moreover, the Kd (as a rule, the constant that tells how readily two partners part at equilibrium) in experiment [2] came to 18 nM. For the same molecule, in [3], binding was put at a Kd of 12 nM. In experiment [4], the “Arithmetic mean EC50 (nM), CT26#7 co-culture” value was determined as 0.14 nM; the “Arithmetic mean EC50 (nM), HT1376 co-culture” value worked out at 0.52 nM; the “Arithmetic mean EC50 (nM), MC38#13 co-culture” value worked out at 0.31 nM; the “Arithmetic mean EC50 (nM), MDA-MB-468 co-culture” value was 0.23 nM. For the same molecule, in experiment [4], the “Arithmetic mean EC50 (nM), NCI-H292 co-culture” value was found to be 0.28 nM; the “Arithmetic mean EC50 (nM), NCI-H322 co-culture” value was 0.33 nM; the “Arithmetic mean EC50 (nM), T47D co-culture” value was 0.42 nM. For the same molecule, in experiment [5], the affinity, expressed as Kd, was 6.26 nM; the koff is 0.00275 s⁻¹; the on-rate constant (kon) came to 439000 M⁻¹ s⁻¹. The binding result in experiment [6] was “no binding (tested: 5000 nM)”. Besides, the binding result in experiment [7] is “no binding (tested: 5000 nM)”. Further, the Kd in experiment [8] stood at 27 nM. In [9], this molecule had a Kd of 4.6 nM.
